For assay [1], the target named is human GLP-1R R121azF (human) (UniProt P43220).
For assay [2], the target named is human GLP-1R R134azF (human) (UniProt P43220).
The target in assay [3] is human GLP-1R R40azF (human) (UniProt P43220).
Assay [4] deals with human GLP-1R E125azF (human) (UniProt P43220).
Assay [5] concerns the target human GLP-1R L89azF (human) (UniProt P43220).
Assay [6] concerns the target human GLP-1R Y101azF (human) (UniProt P43220).
Assay [7] has as its target human GLP-1R L32azF (human) (UniProt P43220).
Assay [8] addresses human GLP-1R S124azF (human) (UniProt P43220).
In assay [9] the target is human GLP-1R L118azF (human) (UniProt P43220).
For assay [10], the target named is human GLP-1R S117azF (human) (UniProt P43220).
Assay [11] concerns the target human GLP-1R Y88azF (human) (UniProt P43220).
The target of assay [12] is human GLP-1R F61azF (human) (UniProt P43220).
Assay [13] has as its target human GLP-1R S31azF (human) (UniProt P43220).
Assay [14] deals with wild-type human glucagon-like peptide-1 receptor (double c-Myc, V5) (human) (UniProt P43220).
For assay [15], the target named is human GLP-1R E68azF (human) (UniProt P43220).
The target of assay [16] is human GLP-1R W33azF (human) (UniProt P43220).
The target of assay [17] is human GLP-1R P90azF (human) (UniProt P43220).
The target of assay [18] is human GLP-1R E138azF (human) (UniProt P43220).
Assay [19] addresses human GLP-1R V36azF (human) (UniProt P43220).
The target in assay [20] is human GLP-1R S135azF (human) (UniProt P43220).
Assay [21] addresses human GLP-1R A70azF (human) (UniProt P43220).
The target of assay [22] is human GLP-1R F80azF (human) (UniProt P43220).
For assay [23], the target named is human GLP-1R Y69azF (human) (UniProt P43220).
The target of assay [24] is human GLP-1R P119azF (human) (UniProt P43220).
Assay [25] deals with human GLP-1R T35azF (human) (UniProt P43220).
The target of assay [26] is human GLP-1R W39azF (human) (UniProt P43220).
For assay [27], the target named is human GLP-1R Y42azF (human) (UniProt P43220).
Assay [28] addresses human GLP-1R F103azF (human) (UniProt P43220).
The target of assay [29] is human GLP-1R L123azF (human) (UniProt P43220).
In assay [30] the target is human GLP-1R V30azF (human) (UniProt P43220).
The target of assay [31] is human GLP-1R E127azF (human) (UniProt P43220).
The target of assay [32] is human GLP-1R W91azF (human) (UniProt P43220).
Assay [33] deals with human GLP-1R S116azF (human) (UniProt P43220).
Assay [34] addresses wild-type human glucagon-like peptide-1 receptor (double c-Myc, V5) (human) (UniProt P43220). The source holds these as a separate data set.

Chain of wild-type human glucagon-like peptide-1 receptor (double c-Myc, V5) (human) (P43220 24-463): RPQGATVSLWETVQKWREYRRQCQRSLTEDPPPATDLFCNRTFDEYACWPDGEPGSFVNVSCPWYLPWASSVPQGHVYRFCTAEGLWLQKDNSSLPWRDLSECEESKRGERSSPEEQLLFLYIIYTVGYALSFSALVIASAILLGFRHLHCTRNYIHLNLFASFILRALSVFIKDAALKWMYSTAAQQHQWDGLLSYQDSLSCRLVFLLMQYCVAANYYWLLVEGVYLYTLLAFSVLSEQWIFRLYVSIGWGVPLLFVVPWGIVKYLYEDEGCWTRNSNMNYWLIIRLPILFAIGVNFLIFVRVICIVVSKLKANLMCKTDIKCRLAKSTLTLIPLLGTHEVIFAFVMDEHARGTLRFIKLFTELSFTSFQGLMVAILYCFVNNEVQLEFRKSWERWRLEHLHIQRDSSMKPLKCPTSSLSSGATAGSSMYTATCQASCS
Chain of human GLP-1R L89azF (human) (P43220 24-463 L89F): as the sequence (P43220 24-463) above, with L66F counted along it
Chain of human GLP-1R Y42azF (human) (P43220 other isoform, or with tags, fused parts or gaps): as the sequence (P43220 24-463) above, with Y19F counted along it
Chain of human GLP-1R L123azF (human) (P43220 24-463 L123F): as the sequence (P43220 24-463) above, with L100F counted along it
Chain of human GLP-1R Y101azF (human) (P43220 24-463 Y101F): as the sequence (P43220 24-463) above, with Y78F counted along it
Chain of human GLP-1R Y88azF (human) (P43220 24-463 Y88F): as the sequence (P43220 24-463) above, with Y65F counted along it
Chain of human GLP-1R E125azF (human) (P43220 24-463 E125F): as the sequence (P43220 24-463) above, with E102F counted along it
Chain of human GLP-1R W39azF (human) (P43220 other isoform, or with tags, fused parts or gaps): as the sequence (P43220 24-463) above, with W16F counted along it
Chain of human GLP-1R L32azF (human) (P43220 other isoform, or with tags, fused parts or gaps): as the sequence (P43220 24-463) above, with L9F counted along it
Chain of human GLP-1R S116azF (human) (P43220 24-463 S116F): as the sequence (P43220 24-463) above, with S93F counted along it
Chain of human GLP-1R F80azF (human) (P43220 24-463): as the sequence (P43220 24-463) above
Chain of human GLP-1R F103azF (human) (P43220 24-463): as above
Chain of human GLP-1R F61azF (human) (P43220 24-463): as above
Chain of human GLP-1R E68azF (human) (P43220 24-463 E68F): as the sequence (P43220 24-463) above, with E45F counted along it
Chain of human GLP-1R A70azF (human) (P43220 24-463 A70F): as the sequence (P43220 24-463) above, with A47F counted along it
Chain of human GLP-1R T35azF (human) (P43220 other isoform, or with tags, fused parts or gaps): as the sequence (P43220 24-463) above, with T12F counted along it
Chain of human GLP-1R P90azF (human) (P43220 24-463 P90F): as the sequence (P43220 24-463) above, with P67F counted along it
Chain of human GLP-1R S31azF (human) (P43220 other isoform, or with tags, fused parts or gaps): as the sequence (P43220 24-463) above, with S8F counted along it
Chain of human GLP-1R E127azF (human) (P43220 24-463 E127F): as the sequence (P43220 24-463) above, with E104F counted along it
Chain of human GLP-1R P119azF (human) (P43220 24-463 P119F): as the sequence (P43220 24-463) above, with P96F counted along it
Chain of human GLP-1R S117azF (human) (P43220 24-463 S117F): as the sequence (P43220 24-463) above, with S94F counted along it
Chain of human GLP-1R V30azF (human) (P43220 other isoform, or with tags, fused parts or gaps): as the sequence (P43220 24-463) above, with V7F counted along it
Chain of human GLP-1R V36azF (human) (P43220 other isoform, or with tags, fused parts or gaps): as the sequence (P43220 24-463) above, with V13F counted along it
Chain of human GLP-1R R134azF (human) (P43220 24-463 R134F): as the sequence (P43220 24-463) above, with R111F counted along it
Chain of human GLP-1R S135azF (human) (P43220 24-463 S135F): as the sequence (P43220 24-463) above, with S112F counted along it
Chain of human GLP-1R W91azF (human) (P43220 24-463 W91F): as the sequence (P43220 24-463) above, with W68F counted along it
Chain of human GLP-1R W33azF (human) (P43220 other isoform, or with tags, fused parts or gaps): as the sequence (P43220 24-463) above, with W10F counted along it
Chain of human GLP-1R L118azF (human) (P43220 24-463 L118F): as the sequence (P43220 24-463) above, with L95F counted along it
Chain of human GLP-1R S124azF (human) (P43220 24-463 S124F): as the sequence (P43220 24-463) above, with S101F counted along it
Chain of human GLP-1R Y69azF (human) (P43220 24-463 Y69F): as the sequence (P43220 24-463) above, with Y46F counted along it
Chain of human GLP-1R R40azF (human) (P43220 other isoform, or with tags, fused parts or gaps): as the sequence (P43220 24-463) above, with R17F counted along it
Chain of human GLP-1R R121azF (human) (P43220 24-463 R121F): as the sequence (P43220 24-463) above, with R98F counted along it
Chain of human GLP-1R E138azF (human) (P43220 24-463 E138F): as the sequence (P43220 24-463) above, with E115F counted along it

As to “exendin-4 (from UniProt P26349 48-87) (peptide)”, the exendin-4-mediated cAMP accumulation in HEK293T cells (+azF), pEC50 in assay [1] was 10 -log10 M; in [2], 11.1 -log10 M; in [3] it was 11.5 -log10 M; in assay [4], 10.3 -log10 M; in [5], 9.6 -log10 M; in [6], 11.5 -log10 M. The exendin-4-mediated cAMP accumulation in HEK293T cells (+azF), pEC50 was 11.1 -log10 M in assay [7]; 11.4 -log10 M in assay [8]; 11.5 -log10 M in assay [9]; 11.1 -log10 M in assay [10]; 10.6 -log10 M in [11]; 11.3 -log10 M in assay [12]. Further, the exendin-4-mediated cAMP accumulation in HEK293T cells (+azF), pEC50 in assay [13] was 11.1 -log10 M; in assay [15], 11.4 -log10 M; in assay [16], 11.4 -log10 M; in [17] it was 9.9 -log10 M; in assay [18], 11 -log10 M; in [19] it was 11.4 -log10 M. Further, the exendin-4-mediated cAMP accumulation in HEK293T cells (+azF), pEC50 was 11.5 -log10 M in assay [20]; 9.1 -log10 M in [21]; 11.3 -log10 M in assay [22]; 10.8 -log10 M in assay [23]; 11.4 -log10 M in assay [24]; 9.5 -log10 M in assay [25]. Also, the exendin-4-mediated cAMP accumulation in HEK293T cells (+azF), pEC50 in [26] was 10.6 -log10 M; in [27] it was 10.6 -log10 M; in assay [28], 11.4 -log10 M; in assay [29] it was 11.2 -log10 M; in [30], 11.2 -log10 M; in [31], 10.8 -log10 M. Also, the exendin-4-mediated cAMP accumulation in HEK293T cells (+azF), pEC50 in assay [32] was 11.5 -log10 M; in [33], 11.4 -log10 M. The exendin-4-mediated cAMP accumulation in HEK293T cells, pEC50 in [14] was 10.8 -log10 M.

On to fluorescein(Lys-20)-exendin-4 (peptide), for which, in assay [34], the cAMP accumulation in HEK293T cells transiently expressing the human GLP-1R, pEC50 was 9.3 -log10 M.

For the origin of these results see PMC5409479.
